The values that follow come from the Human Domainome abundance scans (Beltran et al. 2025).

± gives the uncertainty stated by the source.

The chains are these.
B1: Histone H1t, residues 44 to 112; numbered along this chain, P22492 (parent)
chain: VSKLITEALSVSQERVGMSLVALKKALAAAGYDVEKNNSRIKLSLKSLVNKGILVQTRGTGASGSFKLS

The variants in this data set derive from B1. Briefly: abundance fitness (aPCA) (normalised: wild type 0, dead -1); higher = more abundant; growth selection in yeast, the domain comes from the species named. The note with it: Homo sapiens.
Turning to VSKLITEALSVSQERVGMSLVALKKALAAAGYDVEKNNSAIKLSLKSLVNKGILVQTRGTGASGSFKLS [R40A], the abundance fitness came to 0.091 ± 0.035.
With VSKLITEALSVSQERVGMSLVALKKALAAAGYDVEKNNSQIKLSLKSLVNKGILVQTRGTGASGSFKLS [R40Q], the abundance fitness stood at 0.024 ± 0.028.
For the variant VSKLITEALSVSQERVGMSLVALKKALAAAGYDVEKNNSNIKLSLKSLVNKGILVQTRGTGASGSFKLS [R40N], the abundance fitness was -0.165 ± 0.12.
For the variant VSKLITEALSVSQERVGMSLVALKKALAAAGYDVEKNNSHIKLSLKSLVNKGILVQTRGTGASGSFKLS [R40H], the abundance fitness is -0.094 ± 0.072.
In the case of VSKLITEALSVSQERVGMSLVALKKALAAAGYDVEKNNSSIKLSLKSLVNKGILVQTRGTGASGSFKLS [R40S] it was -0.404 ± 0.12; in that of VSKLITEALSVSQERVGMSLVALKKALAAAGYDVEKNNSVIKLSLKSLVNKGILVQTRGTGASGSFKLS [R40V], -0.396 ± 0.21; in that of VSKLITEALSVSQERVGMSLVALKKALAAAGYDVEKNNSTIKLSLKSLVNKGILVQTRGTGASGSFKLS [R40T], -0.085 ± 0.03.
Turning to VSKLITEALSVSQERVGMSLVALKKALAAAGYDVEKNNSLIKLSLKSLVNKGILVQTRGTGASGSFKLS [R40L], the abundance fitness is -0.097 ± 0.12.
In the case of VSKLITEALSVSQERVGMSLVALKKALAAAGYDVEKNNSPIKLSLKSLVNKGILVQTRGTGASGSFKLS [R40P] it was -0.444 ± 0.03; in that of VSKLITEALSVSQERVGMSLVALKKALAAAGYDVEKNNSKIKLSLKSLVNKGILVQTRGTGASGSFKLS [R40K], 0.128 ± 0.031; in that of VSKLITEALSVSQERVGMSLVALKKALAAAGYDVEKNNSEIKLSLKSLVNKGILVQTRGTGASGSFKLS [R40E], -0.036 ± 0.056.
In the case of VSKLITEALSVSQERVGMSLVALKKALAAAGYDVEKNNSMIKLSLKSLVNKGILVQTRGTGASGSFKLS [R40M] it was -0.215 ± 0.18.
In the case of VSKLITEALSVSQERVGMSLVALKKALAAAGYDVEKNNSGIKLSLKSLVNKGILVQTRGTGASGSFKLS [R40G] it was -0.372 ± 0.037; in that of VSKLITEALSVSQERVGMSLVALKKALAAAGYDVEKNNSRGKLSLKSLVNKGILVQTRGTGASGSFKLS [I41G], -0.405 ± 0.041.
On to VSKLITEALSVSQERVGMSLVALKKALAAAGYDVEKNNSRCKLSLKSLVNKGILVQTRGTGASGSFKLS [I41C], for which the abundance fitness is -0.439 ± 0.054.
Turning to VSKLITEALSVSQERVGMSLVALKKALAAAGYDVEKNNSRYKLSLKSLVNKGILVQTRGTGASGSFKLS [I41Y], the abundance fitness is -0.43 ± 0.057.
VSKLITEALSVSQERVGMSLVALKKALAAAGYDVEKNNSRWKLSLKSLVNKGILVQTRGTGASGSFKLS [I41W]: the abundance fitness was -0.113 ± 0.043.
With VSKLITEALSVSQERVGMSLVALKKALAAAGYDVEKNNSRLKLSLKSLVNKGILVQTRGTGASGSFKLS [I41L] the figure was -0.124 ± 0.026; with VSKLITEALSVSQERVGMSLVALKKALAAAGYDVEKNNSRFKLSLKSLVNKGILVQTRGTGASGSFKLS [I41F], -0.055 ± 0.031.
With VSKLITEALSVSQERVGMSLVALKKALAAAGYDVEKNNSRMKLSLKSLVNKGILVQTRGTGASGSFKLS [I41M] the figure was -0.191 ± 0.031.
In the case of VSKLITEALSVSQERVGMSLVALKKALAAAGYDVEKNNSRDKLSLKSLVNKGILVQTRGTGASGSFKLS [I41D] it was -0.742 ± 0.13; in that of VSKLITEALSVSQERVGMSLVALKKALAAAGYDVEKNNSRPKLSLKSLVNKGILVQTRGTGASGSFKLS [I41P], -0.394 ± 0.035.
Regarding VSKLITEALSVSQERVGMSLVALKKALAAAGYDVEKNNSRHKLSLKSLVNKGILVQTRGTGASGSFKLS [I41H], the abundance fitness was -0.444 ± 0.049.
As to VSKLITEALSVSQERVGMSLVALKKALAAAGYDVEKNNSRVKLSLKSLVNKGILVQTRGTGASGSFKLS [I41V], the abundance fitness is -0.308 ± 0.041.
For the variant VSKLITEALSVSQERVGMSLVALKKALAAAGYDVEKNNSRNKLSLKSLVNKGILVQTRGTGASGSFKLS [I41N], the abundance fitness is -0.542 ± 0.052.
For VSKLITEALSVSQERVGMSLVALKKALAAAGYDVEKNNSREKLSLKSLVNKGILVQTRGTGASGSFKLS [I41E], the abundance fitness is -0.813 ± 0.11.
For VSKLITEALSVSQERVGMSLVALKKALAAAGYDVEKNNSRTKLSLKSLVNKGILVQTRGTGASGSFKLS [I41T], the abundance fitness was -0.56 ± 0.039.
In the case of VSKLITEALSVSQERVGMSLVALKKALAAAGYDVEKNNSRQKLSLKSLVNKGILVQTRGTGASGSFKLS [I41Q] it was -0.556 ± 0.049; in that of VSKLITEALSVSQERVGMSLVALKKALAAAGYDVEKNNSRRKLSLKSLVNKGILVQTRGTGASGSFKLS [I41R], -0.514 ± 0.034; in that of VSKLITEALSVSQERVGMSLVALKKALAAAGYDVEKNNSRIKVSLKSLVNKGILVQTRGTGASGSFKLS [L43V], -0.617 ± 0.38.
With VSKLITEALSVSQERVGMSLVALKKALAAAGYDVEKNNSRIKNSLKSLVNKGILVQTRGTGASGSFKLS [L43N] the figure was 0.266 ± 0.044.
With VSKLITEALSVSQERVGMSLVALKKALAAAGYDVEKNNSRIKRSLKSLVNKGILVQTRGTGASGSFKLS [L43R] the figure was 0.049 ± 0.032; with VSKLITEALSVSQERVGMSLVALKKALAAAGYDVEKNNSRIKKSLKSLVNKGILVQTRGTGASGSFKLS [L43K], 0.181 ± 0.026.
Take VSKLITEALSVSQERVGMSLVALKKALAAAGYDVEKNNSRIKGSLKSLVNKGILVQTRGTGASGSFKLS [L43G]: the abundance fitness is -0.061 ± 0.036.
As to VSKLITEALSVSQERVGMSLVALKKALAAAGYDVEKNNSRIKHSLKSLVNKGILVQTRGTGASGSFKLS [L43H], the abundance fitness is 0.015 ± 0.043.
With VSKLITEALSVSQERVGMSLVALKKALAAAGYDVEKNNSRIKQSLKSLVNKGILVQTRGTGASGSFKLS [L43Q] the figure was 0.172 ± 0.027; with VSKLITEALSVSQERVGMSLVALKKALAAAGYDVEKNNSRIKESLKSLVNKGILVQTRGTGASGSFKLS [L43E], 0.229 ± 0.035.
In the case of VSKLITEALSVSQERVGMSLVALKKALAAAGYDVEKNNSRIKDSLKSLVNKGILVQTRGTGASGSFKLS [L43D] it was 0.036 ± 0.13; in that of VSKLITEALSVSQERVGMSLVALKKALAAAGYDVEKNNSRIKSSLKSLVNKGILVQTRGTGASGSFKLS [L43S], 0.034 ± 0.088.
